Data: US20260104381, “ELECTRODEPOSITED METAL MODIFIED LASER SCRIBED GRAPHENE ELECTRODE AND METHOD” (KING ABDULLAH UNIVERSITY OF SCIENCE AND TECHNOLOGY, published 2026)

Target: HER2 (human epidermal growth factor receptor 2) (Homo sapiens, UniProt P04626 P04626:23-652)
Assay: electrochemical SWV aptasensor; 0.1-200 ng/mL HER2 in 10 mM PBS pH 7.4, 1 h; MCH/BSA blocked; LOD 0.008 ng/mL; also detected in spiked undiluted human serum; protein source not stated
Conditions: label: immobilized via thiol on gold nanostructured laser-scribed graphene electrode
Protocol: The concentrated Mercaptohexanol (MCH) solution was first prepared in ultrapure water and then further diluted in 10 mM PBS (pH 7.4). 4 μM of DNA aptamer 410 was mixed with 20 μM of MCH 412 prepared with 10 mM PBS (pH 7.4) to obtain a homogenized solution. As the next step, 6 μL from this mixture was placed in step 402 onto the LSG-AuNS modified working electrode 104 and incubated for 16 h, as shown in FIG. 4B. The MCH 412 covers a first part of the surface of the nanostructure 110 while the aptamer 410 covers a second part of the surface of the nanostructure 110. However, a third part of the surface of the nanostructure 110 is not covered by either of the MCH or the aptamer. The LSG-AuNS electrode surface was cleaned with 10 mM PBS (pH 7.4) to remove the excess of aptamer molecules 410 and MCH 412. The aptasensor was incubated in step 405 in 0.1 mg/mL of BSA solution 414 in 10 mM PBS (pH 7.4) for 45 min to cover a third part of the surface of the nanostructure 110, to reduce non-specific adsorption, as illustrated in FIG. 4C. In one application, the sum of the surfaces of the first to third parts covers the entire surface of the nanostructure 110. However, in another application, the sum of the first to third parts cover less than the entire surface of the nanostructure 110. Finally, the aptamer modified electrode 104 was washed with 10 mM PBS (pH 7.4) for at least five times. […]

B1: thiol-modified anti-Her-2 DNA aptamer (APT) (ssDNA)
DNA: AACCGCCCAAATCCCTAAGAGTCTGCACTTGTCATTTTGTATATGTATTTGGTTTTTGGCTCTCACAGACACACTACACACGCACA
modifications: 5'-ThiC6 (thiol C6 linker)
- binding result: binds
